Measurements published in the supplement of paper PMC7877785.
± gives the uncertainty stated by the source.

Experiment: self-splicing fitness, log relative to wild type (ln ratio); higher = more splicing; Tetrahymena group I intron in knt gene, E. coli kanamycin selection, DiMSum; sequences stand for … in CUCUCU…GGAGGGAAAAGUUAUCAGGCAUGCACCUGGUAGCUAGUCUUUAAACCAAUAGAUUGCAUCGGUUUAAAAGGCAAGACCGUCAAAUUGCGGGAAAGGGGUCAACAGCCGUUCAGUACCAAGUCUCAGGGGAAACUUUGAGAUGGCCUUGCAAAGGGUAUGGUAAUAAGCUGACGGACAUGGUCCUAACCACGCAGCCAAGUCCUAAGUCAACAGAUCUUCUGUUGAUAUGGAUGCAGUUCACAGACUAAAUGUCGGUCGGGGAAGAUGUAUUCUUCUCAUAAGAUAUAGUCGGACCUCUCCUUAAUGGGAGCUAGCGGAUGAAGUGAUGCAACACUGGAGCCGCUGGGAACUAAUUUGUAUGCGAAAGUAUAUUGAUUAGUUUUGGAGUACUCGUGGUCG
Method in brief: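 Library with all eight P1ex-region intron nucleotides randomised, intron inside the knt kanamycin-resistance gene on pET-22b(+), in E. coli BL21(DE3). Cells grew overnight at 37°C or 30°C on LB agar with or without 25 μg/mL kanamycin (plus 100 μg/mL carbenicillin, 50 μM IPTG, 0.2% rhamnose), in six replicate transformations. Pooled colonies were amplicon-sequenced on Illumina HiSeq 2500. DiMSum fitness is the error-weighted combination of wild-type-normalised replicate fold changes, kanamycin versus none.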

Sequence | self-splicing fitness (ln) (30 °C) | self-splicing fitness (ln) (37 °C)
CUAAAGCAAUAUUACGAUAU | -3.84 ± 0.19 | -3.13 ± 0.18
CCGUAGCAAUAUUACGGUCU | -3.01 ± 0.21 | -2.2 ± 0.18
UACAAGCAAUAUUACGACCC | -2.31 ± 0.46 | 
GUUCAGCAAUAUUACGGUGA | -2.66 ± 0.17 | -1.08 ± 0.13
AGCGAGCAAUAUUACGUAGC | -2.83 ± 0.26 | -0.813 ± 0.27
GUCUAGCAAUAUUACGUAGC | -1.45 ± 0.15 | 0.302 ± 0.2
GGGGAGCAAUAUUACGGACA |  | -1.12 ± 0.2
GGAGAGCAAUAUUACGAGUU | -4 ± 0.35 | 
UCGGAGCAAUAUUACGUGGA | -1.28 ± 0.2 | -1.48 ± 0.18
GAGCAGCAAUAUUACGGUCC | -2.93 ± 0.18 | -1.63 ± 0.17
CCUCAGCAAUAUUACGUCCA | -2.26 ± 0.14 | -3 ± 0.29
UGUUAGCAAUAUUACGUGGA | -1.1 ± 0.22 | -1.62 ± 0.15
ACGCAGCAAUAUUACGUUUC | -3.87 ± 0.2 | -2.61 ± 0.25
CGGUAGCAAUAUUACGAGAG | -3.4 ± 0.19 | -0.673 ± 0.11
UUCGAGCAAUAUUACGUGCA | -2.18 ± 0.19 | -1.4 ± 0.16
UCUAAGCAAUAUUACGCUCU | -3.32 ± 0.47 | -2.58 ± 0.41
UUCAAGCAAUAUUACGAAUA | -2.07 ± 0.18 | -0.837 ± 0.12
AGUAAGCAAUAUUACGAUUC | -1.31 ± 0.14 | -0.96 ± 0.22
UAGUAGCAAUAUUACGACUU | 0.654 ± 0.13 | -0.285 ± 0.14
UUCUAGCAAUAUUACGAGAA | -2.54 ± 0.29 | -2.11 ± 0.29
AACAAGCAAUAUUACGGUAC | -3.04 ± 0.16 | -1.99 ± 0.18
GGUUAGCAAUAUUACGAACA | -0.6 ± 0.18 | 0.626 ± 0.25
CCGCAGCAAUAUUACGGCCC | -3.3 ± 0.48 | 
GAUCAGCAAUAUUACGUGUA | -1.36 ± 0.069 | -0.723 ± 0.082
CCAGAGCAAUAUUACGGUGC | -2.81 ± 0.14 | -2.28 ± 0.23
ACACAGCAAUAUUACGGGGU | -3.14 ± 0.11 | -1.42 ± 0.087

Sequence | self-splicing fitness (ln) (30 °C) | self-splicing fitness (ln) (37 °C)
GGUUAGCAAUAUUACGUCCG | -0.773 ± 0.11 | -0.617 ± 0.2
AUUGAGCAAUAUUACGAGUG | -2.69 ± 0.28 | -2.76 ± 0.38
CAAGAGCAAUAUUACGCACU | -3.06 ± 0.33 | 
GGAGAGCAAUAUUACGAAUU | -3.13 ± 0.49 | -2.27 ± 0.4
CAAGAGCAAUAUUACGUAAU | -2.63 ± 0.23 | -2.7 ± 0.32
UGUCAGCAAUAUUACGUUAG | -1.07 ± 0.067 | -0.704 ± 0.065
AACAAGCAAUAUUACGAAAA | -1.7 ± 0.15 | -2.39 ± 0.19
CUAAAGCAAUAUUACGUUUA | -4.12 ± 0.16 | -2.81 ± 0.17
CUUGAGCAAUAUUACGUAAA |  | -0.936 ± 0.2
AAAUAGCAAUAUUACGGCCC | -0.752 ± 0.16 | -0.254 ± 0.22
GUGAAGCAAUAUUACGCAGU | -2.6 ± 0.22 | -1.02 ± 0.19
AAACAGCAAUAUUACGUUUU | -3.81 ± 0.11 | -3 ± 0.15
GCUUAGCAAUAUUACGGAUG | -1.71 ± 0.14 | -1.05 ± 0.13
UCCUAGCAAUAUUACGGUGG | -3.31 ± 0.15 | -2.32 ± 0.13
CUUAAGCAAUAUUACGGUAU | -4.7 ± 0.34 | -2.35 ± 0.22
CACUAGCAAUAUUACGUCUC | -4.18 ± 0.26 | -2.43 ± 0.2
UACUAGCAAUAUUACGGGUG | -0.974 ± 0.077 | -0.232 ± 0.075
AUACAGCAAUAUUACGUCAC | -3.13 ± 0.16 | -2.1 ± 0.17
UUUGAGCAAUAUUACGAUAU |  | -0.926 ± 0.24
GCCCAGCAAUAUUACGUGGU | -4 ± 0.18 | -1.9 ± 0.14
ACCAAGCAAUAUUACGAAGA | -4.11 ± 0.24 | -1.56 ± 0.14
AAGGAGCAAUAUUACGGUUC | -1.51 ± 0.17 | -2.92 ± 0.35
GACGAGCAAUAUUACGACUU | -0.586 ± 0.17 | 0.25 ± 0.19
ACUGAGCAAUAUUACGAAGG | -2.53 ± 0.18 | -2.02 ± 0.24
CUACAGCAAUAUUACGGGUU | -3.18 ± 0.11 | -2.94 ± 0.12
AUGCAGCAAUAUUACGUUGU | -4.08 ± 0.16 | -3.03 ± 0.15

Sequence | self-splicing fitness (ln) (30 °C) | self-splicing fitness (ln) (37 °C)
CGAGAGCAAUAUUACGUCUU | -3.66 ± 0.43 | -1.39 ± 0.22
GUGCAGCAAUAUUACGACCU | -1.51 ± 0.27 | -0.504 ± 0.24
GGUAAGCAAUAUUACGCCGA | -2.95 ± 0.43 | -0.926 ± 0.25
CACGAGCAAUAUUACGUGAG | -4.08 ± 0.19 | -2.38 ± 0.19
CCUUAGCAAUAUUACGGAUG | -1.72 ± 0.064 | -0.271 ± 0.08
CGAGAGCAAUAUUACGGUAG | -1.73 ± 0.23 | -1.65 ± 0.33
GCGAAGCAAUAUUACGUAGG | -1.32 ± 0.092 | -1.43 ± 0.13
UACUAGCAAUAUUACGGCGG | -0.694 ± 0.11 | 0.0905 ± 0.13
GAUUAGCAAUAUUACGUAGC | -1.74 ± 0.14 | -1.33 ± 0.18
GGAAAGCAAUAUUACGGUGG | -1.84 ± 0.16 | -1.53 ± 0.16
CAUCAGCAAUAUUACGAUCG | -0.307 ± 0.12 | -0.125 ± 0.15
AGUAAGCAAUAUUACGCUAA | -2.36 ± 0.17 | -2.3 ± 0.19
CCUUAGCAAUAUUACGGGAG | -3.19 ± 0.23 | -3.67 ± 0.39
GGGAAGCAAUAUUACGUUUA | -2.23 ± 0.22 | -1.51 ± 0.16
UAUAAGCAAUAUUACGAUUU | -1.43 ± 0.091 | -0.65 ± 0.1
UAAGAGCAAUAUUACGGCGC | -2.68 ± 0.32 | -2.01 ± 0.41
UACUAGCAAUAUUACGCAGU | -3.26 ± 0.35 | -3.09 ± 0.34
CAGGAGCAAUAUUACGUAUU | -2.97 ± 0.21 | -2.2 ± 0.18
CACUAGCAAUAUUACGCAGA | -2.54 ± 0.19 | -2.16 ± 0.19
UGAUAGCAAUAUUACGUACG | -0.418 ± 0.074 | 0.13 ± 0.1
GUGUAGCAAUAUUACGAUGU | -1.36 ± 0.12 | -0.234 ± 0.14
AUUCAGCAAUAUUACGGUUA | -0.544 ± 0.089 | -0.305 ± 0.08
CCAAAGCAAUAUUACGCUAA | -2.86 ± 0.23 | -2.7 ± 0.3
CAUUAGCAAUAUUACGCCAA | -2.88 ± 0.33 | -2.63 ± 0.48
AUUCAGCAAUAUUACGUUAU | -1.22 ± 0.079 | 0.0898 ± 0.095
